Laboratory results published in publication PMC6969062, “Ultrasensitive nano-aptasensor for monitoring retinol binding protein 4 as a biomarker for diabetes prognosis at early stages”.

Molecular target: RBP4 (retinol binding protein 4) (Homo sapiens, UniProt P02753 19-201)
Assay: aptamer-antibody sandwich chemiluminescence on streptavidin wells; 2 mM Mg2+, 1 mM Ca2+; linear range 0.001-2 ng/mL, LOD 951 fg/mL; Binding buffer 20 mM Tris-HCl pH 7.6, 100 mM NaCl, 2 mM MgCl2, 5 mM KCl, 1 mM CaCl2, 0.02% Tween-20; RBP4 1 h (temperature not stated), reporter antibody step 1

B1: RBA (RBP4 aptamer), biotin-T10 (ssDNA)
DNA: TTTTTTTTTTATACCAGCTTATTCAATTACAGTAGTGAGGGGTCCGTCGTGGGGTAGTTGGGTCGTGGAGATAGTAAGTGCAATCT
B1: binds.
